Assay [1] concerns the target T1, recombinant human GPC3 (R&D Systems #2119-GP-050/CF) (human, UniProt P51654 25-559).
T1 construct: also called Glypican-3; biotinylated human GPC3
As to the kind of experiment: SPR, biotinylated GPC3 captured on CAP chip, 1:1 model, apparent affinity. On the procedure:
Biotinlated GPC3 was immobilized on a sensor chip and binding of the fusion polypeptides and lipocalin mutein was analyzed at different concentrations.
In general terms: SPR reads the build-up and loss of mass on a sensor chip optically.

Assay [2] concerns the target T1, recombinant human GPC3 (R&D Systems …). As to the kind of experiment: ELISA, GPC3 coated, anti-NGAL-HRP detection. From the text:
GPC3 was coated on a microtiter plate and the tested molecules were titrated. Bound molecules were detected via an HRP-labeled anti-human NGAL-specific antibody as described in Example 12. The data was fitted with a 1:1 binding model with EC50 value and the maximum signal as free parameters, and a slope that was fixed to unity.
In general terms: In an ELISA, binding on a coated surface is turned into a signal by an enzyme label.

For assay [3] the target is unchanged. As to the kind of experiment: SPR (Biacore T200), biotinylated GPC3 captured on CAP chip, 1:1 model, apparent affinity. On the procedure:
In the SPR affinity assay, biotinylated GPC3 was captured on a sensor chip (“CAP chip”) using the Biotin CAPture Kit (GE Healthcare): sensor Chip CAP is pre-immobilized with an ssDNA oligo. Undiluted Biotin CAPture Reagent (streptavidin conjugated with the complementary ss-DNA oligo) was applied at a flow rate of 2 μL/min for 300 s. For analysis of the lipocalin mutein, biotinylated GPC3 at a concentration of 1 μg/mL was used and 0.25 μg/mL of biotinylated GPC3 for the fusions proteins. The biotinylated GPC3 was applied for 300 s at a flow rate of 5 μL/min. GPC3 was biotinylated by incubation with EZ-Link® NHS-PEG4-Biotin (5-fold molar excess (Thermo Scientific)) during two hours at room temperature. The excess of non-reacted biotin reagent was removed by loading the reaction mixture onto a Zeba™ Spin Desalting Plate (Thermo Scientific). The reference channel was loaded with Biotin CAPture Reagent only.
Applying a flow rate of 30 μL/min, the sample contact time was 180 s and dissociation time was 1200 s. All measurements were performed at 25° C. […] Prior to the protein measurements three regeneration cycles were performed for conditioning purposes. Data were evaluated with Biacore T200 Evaluation software (V 2.0). Double referencing was used and the 1:1 Binding model was used to fit the raw data.

For assay [4] the target is unchanged. As to the kind of experiment: ELISA, GPC3 coated, anti-NGAL-HRP detection. The text has this: GPC3 was coated on a microtiter plate and the tested molecules were titrated. […] The data was fitted with a 1:1 binding model with EC50 value and the maximum signal as free parameters, and a slope that was fixed to unity.
The source holds these as a separate data set.

The target is the same in assay [5]. As to the kind of experiment: ELISA, GPC3 coated, anti-NGAL-HRP detection. Here is the method:
The target was dissolved in PBS (1 μg/mL) and coated overnight on microtiter plates at 4° C. The plate was washed after each incubation step with […] PBS supplemented with 0.1% (v/v) Tween 20 (PBS-T) five times. The plates were blocked with 2% BSA (w/v) in PBS-T for 1 h at room temperature and subsequently washed. Different concentrations of the lipocalin mutein (SEQ ID NO: 10) or the fusion polypeptides were added to the wells and incubated for 1 h at room temperature, followed by a wash step. Bound fusion protein or lipocalin mutein was detected after incubation with 1:1000 diluted anti-human NGAL antibody conjugated to HRP in PBS-T supplemented with 2% (w/v) BSA (PBS-TB). After an additional wash step, fluorogenic HRP substrate (QuantaBlu, Thermo) was added to each well and the fluorescence intensity was detected using a fluorescence microplate reader.
The result of the experiment is depicted in FIG. 2, together with the fit curves resulting from a 1:1 binding sigmoidal fit, where the EC50 value and the maximum signal were free parameters, and the slope was fixed to unity.
The source holds these as a separate data set.

The target of assay [6] is T2, recombinant human CD137-Fc fusion protein (#838-4B-100, R&D Systems) (human, UniProt Q07011 24-186).
T2 construct: also called Fc-fusion of human CD137; not shown: Fc part of the bought fusion protein, not described
As to the kind of experiment: SPR, CD137-Fc captured by anti-human Fc antibody on CM5 chip, 1:1 model. On the procedure:
Binding affinities of the CD137-binding lipocalin mutein and the bispecific polypeptides of SEQ ID NO: 46 and SEQ ID NO: 47 to recombinant human CD137-Fc fusion protein (#838-4B-100, R&D Systems) were determined by Surface Plasmon Resonance using a Biacore T200 instrument (GE Healthcare) in analogy to Example 6. Prior to the SPR affinity assay, a CM5 sensor chip was derivatized with an anti-human Fc antibody using the Human Antibody Capture Kit (GE Healthcare # BR-1008-39) according to the manufacturer's instructions.
Four different concentrations (1000 nM, 200 nM, 40 nM and 8 nM) of the bispecific polypeptides were prepared in running buffer (10 mM HEPES, 150 mM NaCl, 0.05% v/v Surfactant P20, 3 mM EDTA, pH 7.4 (GE Healthcare)) and applied to the chip surface. Applying a flow rate of 30 μL/min, the sample contact time was 180 s and dissociation time was 600 s. All measurements were performed at 25° C. […] Prior to the protein measurements three regeneration cycles were performed for conditioning purposes. Data were evaluated with Biacore T200 Evaluation software (V 2.0). Double referencing was used and the 1:1 Binding model was used to fit the raw data.

Assay [7] addresses T2, recombinant human CD137-Fc fusion …. As to the kind of experiment: ELISA, CD137-Fc coated, as described in Example 3. The text has this: The data was fitted with a 1:1 binding model with EC50 value and the maximum signal as free parameters, and a slope that was fixed to unity.
For assay [8] the target is unchanged. As to the kind of experiment: SPR, biotinylated CD137-Fc captured on CAP chip, in analogy to Example 6. Here is the method:
Biotinlated CD137-Fc was immobilized on sensor chip and binding of the fusion polypeptides and lipocalin mutein was analyzed at different concentrations.

The target is the same in assay [9]. As to the kind of experiment: ELISA, CD137-Fc coated, as described in Example 3. This is another data set of the same source.

The values below come from US20180148485A1 (Pieris, published 2018).

Where two headings read alike, the source gives them in different places.

T1 sequence (P51654 25-559 limits assumed): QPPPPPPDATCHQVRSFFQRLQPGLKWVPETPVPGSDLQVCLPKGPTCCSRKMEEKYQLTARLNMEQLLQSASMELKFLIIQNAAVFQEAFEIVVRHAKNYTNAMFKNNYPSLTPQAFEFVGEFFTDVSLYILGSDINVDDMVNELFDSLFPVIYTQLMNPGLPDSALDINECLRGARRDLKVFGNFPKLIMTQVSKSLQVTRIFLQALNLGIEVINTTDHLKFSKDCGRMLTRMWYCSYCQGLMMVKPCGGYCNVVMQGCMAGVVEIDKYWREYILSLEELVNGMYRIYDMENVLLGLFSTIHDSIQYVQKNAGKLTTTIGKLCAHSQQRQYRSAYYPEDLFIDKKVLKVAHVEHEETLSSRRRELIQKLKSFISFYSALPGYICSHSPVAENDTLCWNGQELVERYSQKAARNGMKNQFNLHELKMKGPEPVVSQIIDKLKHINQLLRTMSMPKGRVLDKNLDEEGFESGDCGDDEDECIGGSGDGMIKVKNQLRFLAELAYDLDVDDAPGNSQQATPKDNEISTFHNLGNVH

B1: GPC3-binding lipocalin mutein of SEQ ID NO: 10 (designed binder)
chain: QDSTSDLIPAPPLSKVPLQQNFQDNQFQGKWYVVGRAGNVGLREDKDPPKMWATIYELKEDKSYDVTNVRFARKKCTYSIGTFVPGSQPGEFTLGQIKSEPGGTANLVRVVSTNYNQHAMVFFKEVYQNREIFFIILYGRTKELTSELKENFIRFSKSLGLPENHIVFPVPIDQCIDG
notes: hNGAL-based lipocalin mutein; also called GPC3 lipocalin mutein
In general, EC50 refers to the midpoint of the concentration-response curve. For B1, the Kd worked out at 0.033 nM in assay [1] and 0.012 nM in assay [3]. Also, the EC50 in [2] is 0.55 nM; in assay [4], 0.32 nM; in assay [5], 0.55 nM.

B2: CD137-binding lipocalin mutein of SEQ ID NO: 26 (designed binder)
chain: QDSTSDLIPAPPLSKVPLQQNFQDNQFHGKWYVVGQAGNIRLREDKDPIKMMATIYELKEDKSYDVTMVKFDDKKCMYDIWTFVPGSQPGEFTLGKIKSFPGHTSSLVRVVSTNYNQHAMVFFKFVFQNREEFYITLYGRTKELTSELKENFIRFSKSLGLPENHIVFPVPIDQCIDG
Consider B2, for which the Kd in assay [6] was 0.0023 nM; in [8] it was 2.3 nM. For the same molecule, the results for the EC50 in [7] and in [9] were 0.43 nM and 0.28 nM, respectively.
